This is an account of results in the supplement of paper PMC5998384.

The test system of data set [1] is HeLa Kyoto. The data set is described as follows: thermal stability score vs G1/S (z-score of summed log2 fold changes over temperatures); higher = more thermally stable than in G1/S.
Data set [2] deals with HeLa Kyoto. The data set is described as follows: solubility change mitosis vs G1/S (difference of NP-40 vs SDS log2 ratios) (log2 ratio difference); higher = more soluble in mitosis.
The subject of data set [3] is HeLa Kyoto. The data set is described as follows: solubility in G1/S (NP-40 vs SDS abundance) (log2 ratio); higher = more soluble. As to conditions: cell cycle stage: G1/S.
For data set [4], the system named is HeLa Kyoto. Put plainly: melting temperature (median over replicates), in situ; higher = more thermally stable.
The mark [5] stands for this setting: cell cycle stage: early G1 (4.5 h after nocodazole release).
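Throughout, for melting temperature (median over replicates), in situ: HeLa Kyoto cells synchronized by double thymidine or nocodazole block, proteins quantified by TMT10plex mass spectrometry, three independent biological replicates.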
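Throughout, for solubility change mitosis vs G1/S (difference of NP-40 vs SDS log2 ratios): synchronized HeLa Kyoto cells (double thymidine block for G1/S, nocodazole release for mitosis), protein amounts in NP-40 versus SDS lysates quantified by mass spectrometry, three biological replicates.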
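Throughout, for solubility in G1/S (NP-40 vs SDS abundance): HeLa Kyoto cells arrested at G1/S by double thymidine block, proteins quantified by TMT10plex mass spectrometry in mild NP-40 versus SDS extracts, three biological replicates.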
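Throughout, for thermal stability score vs G1/S (z-score of summed log2 fold changes over temperatures): synchronized HeLa Kyoto cells, proteins quantified by TMT10plex mass spectrometry, three biological replicates, mitosis taken 0.5 h after nocodazole release, G1/S directly after double thymidine block.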

Take “MAQSLRLHFAARRSNTYPLSETSGDDLDSHVHMCFKRPTRISTSNVVQMKLTPRQTALAPLIKENVQSQERSSVPSSENVNKKSSCLQISLQPTRYSGYLQSSNVLADSDDASFTCILKDGIYSSAVVDNELNAVNDGHLVSSPAICSGSLSNFSTSDNGSYSSNGSDFGSCASITSGGSYTNSVISDSSSYTFPPSDDTFLGGNLPSDSTSNRSVPNRNTTPCEIFSRSTSTDPFVQDDLEHGLEIMKLPVSRNTKIPLKRYSSLVIFPRSPSTTRPTSPTSLCTLLSKGSYQTSHQFIISPSEIAHNEDGTSAKGFLSTAVNGLRLSKTICTPGEVRDIRPLHRKGSLQKKIVLSNNTPRQTVCEKSSEGYSCVSVHFTQRKAATLDCETTNGDCKPEMSEIKLNSDSEYIKLMHRTSACLPSSQNVDCQININGELERPHSQMNKNHGILRRSISLGGAYPNISCLSSLKHNCSKGGPSQLLIKFASGNEGKVDNLSRDSNRDCTNELSNSCKTRDDFLGQVDVPLYPLPTENPRLERPYTFKDFVLHPRSHKSRVKGYLRLKMTYLPKTSGSEDDNAEQAEELEPGWVVLDQPDAACHLQQQQEPSPLPPGWEERQDILGRTYYVNHESRRTQWKRPTPQDNLTDAENGNIQLQAQRAFTTRRQISEETESVDNRESSENWEIIREDEATMYSNQAFPSPPPSSNLDVPTHLAEELNARLTIFGNSAVSQPASSSNHSSRRGSLQAYTFEEQPTLPVLLPTSSGLPPGWEEKQDERGRSYYVDHNSRTTTWTKPTVQATVETSQLTSSQSSAGPQSQASTSDSGQQVTQPSEIEQGFLPKGWEVRHAPNGRPFFIDHNTKTTTWEDPRLKIPAHLRGKTSLDTSNDLGPLPPGWEERTHTDGRIFYINHNIKRTQWEDPRLENVAITGPAVPYSRDYKRKYEFFRRKLKKQNDIPNKFEMKLRRATVLEDSYRRIMGVKRADFLKARLWIEFDGEKGLDYGGVAREWFFLISKEMFNPYYGLFEYSATDNYTLQINPNSGLCNEDHLSYFKFIGRVAGMAVYHGKLLDGFFIRPFYKMMLHKPITLHDMESVDSEYYNSLRWILENDPTELDLRFIIDEELFGQTHQHELKNGGSEIVVTNKNKKEYIYLVIQWRFVNRIQKQMAAFKEGFFELIPQDLIKIFDENELELLMCGLGDVDVNDWREHTKYKNGYSANHQVIQWFWKAVLMMDSEKRIRLLQFVTGTSRVPMNGFAELYGSNGPQSFTVEQWGTPEKLPRAHTCFNRLDLPPYESFEELWDKLQMAIENTQGFDGVD [NEDD4]”: the thermal stability score with HeLa Kyoto [1] (setting [5]) is -0.41; in the data set with HeLa Kyoto [1] (cell cycle stage: mitosis), 0.545. Further, the “solubility change mitosis (log2)” value in the data set with HeLa Kyoto [2] is -0.163. For the same sequence, the “solubility in G1/S (log2)” value in the data set on HeLa Kyoto [3] is -0.127. The melting temperature in the data set with HeLa Kyoto [4] (cell cycle stage: G1/S) worked out at 49.3 °C; in the data set on HeLa Kyoto [4] (cell cycle stage: mitosis), 49.7 °C.

Turning to “MGHPPLLPLLLLLHTCVPASWGLRCMQCKTNGDCRVEECALGQDLCRTTIVRLWEEGEELELVEKSCTHSEKTNRTLSYRTGLKITSLTEVVCGLDLCNQGNSGRAVTYSRSRYLECISCGSSDMSCERGRHQSLQCRSPEEQCLDVVTHWIQEGEEGRPKDDRHLRGCGYLPGCPGSNGFHNNDTFHFLKCCNTTKCNEGPILELENLPQNGRQCYSCKGNSTHGCSSEETFLIDCRGPMNQCLVATGTHEPKNQSYMVRGCATASMCQHAHLGDAFSMNHIDVSCCTKSGCNHPDLDVQYRSGAAPQPGPAHLSLTITLLMTARLWGGTLLWT [PLAUR]”, the thermal stability score in the data set with HeLa Kyoto [1] (setting [5]) turned out to be 0.197; with HeLa Kyoto [1] (cell cycle stage: mitosis), 4.92. The “solubility change mitosis (log2)” value in the data set on HeLa Kyoto [2] is -0.232. Further, the “solubility in G1/S (log2)” value in the data set on HeLa Kyoto [3] was 0.19. The figures for the melting temperature in the data set with HeLa Kyoto [4] (cell cycle stage: G1/S) and with HeLa Kyoto [4] (cell cycle stage: mitosis) were 52.8 °C and 56.2 °C, respectively.

Turning to “MSVGFIGAGQLAFALAKGFTAAGVLAAHKIMASSPDMDLATVSALRKMGVKLTPHNKETVQHSDVLFLAVKPHIIPFILDEIGADIEDRHIVVSCAAGVTISSIEKKLSAFRPAPRVIRCMTNTPVVVREGATVYATGTHAQVEDGRLMEQLLSSVGFCTEVEEDLIDAVTGLSGSGPAYAFTALDALADGGVKMGLPRRLAVRLGAQALLGAAKMLLHSEQHPGQLKDNVSSPGGATIHALHVLESGGFRSLLINAVEASCIRTRELQSMADQEQVSPAAIKKTILDKVKLDSPAGTALSPSGHTKLLPRSLAPAGKD [PYCR1]”, the thermal stability score in the data set on HeLa Kyoto [1] (setting [5]) was 0.0884; in the data set with HeLa Kyoto [1] (cell cycle stage: mitosis), -3.11. Besides, the “solubility change mitosis (log2)” value in the data set with HeLa Kyoto [2] is -0.0764. In addition, in the data set on HeLa Kyoto [3], the “solubility in G1/S (log2)” value is 0.208. The melting temperature with HeLa Kyoto [4] (cell cycle stage: G1/S) is 54.9 °C; with HeLa Kyoto [4] (cell cycle stage: mitosis) it was 53.7 °C.

“MSSSNVEVFIPVSQGNTNGFPATASNDLKAFTEGAVLSFHNICYRVKLKSGFLPCRKPVEKEILSNINGIMKPGLNAILGPTGGGKSSLLDVLAARKDPSGLSGDVLINGAPRPANFKCNSGYVVQDDVVMGTLTVRENLQFSAALRLATTMTNHEKNERINRVIQELGLDKVADSKVGTQFIRGVSGGERKRTSIGMELITDPSILFLDEPTTGLDSSTANAVLLLLKRMSKQGRTIIFSIHQPRYSIFKLFDSLTLLASGRLMFHGPAQEALGYFESAGYHCEAYNNPADFFLDIINGDSTAVALNREEDFKATEIIEPSKQDKPLIEKLAEIYVNSSFYKETKAELHQLSGGEKKKKITVFKEISYTTSFCHQLRWVSKRSFKNLLGNPQASIAQIIVTVVLGLVIGAIYFGLKNDSTGIQNRAGVLFFLTTNQCFSSVSAVELFVVEKKLFIHEYISGYYRVSSYFLGKLLSDLLPMRMLPSIIFTCIVYFMLGLKPKADAFFVMMFTLMMVAYSASSMALAIAAGQSVVSVATLLMTICFVFMMIFSGLLVNLTTIASWLSWLQYFSIPRYGFTALQHNEFLGQNFCPGLNATGNNPCNYATCTGEEYLVKQGIDLSPWGLWKNHVALACMIVIFLTIAYLKLLFLKKYS [ABCG2]”: the thermal stability score with HeLa Kyoto [1] (setting [5]) was -1.15; with HeLa Kyoto [1] (cell cycle stage: mitosis), -0.412. Further, in the data set on HeLa Kyoto [2], the “solubility change mitosis (log2)” value was -0.0838. Further, the “solubility in G1/S (log2)” value in the data set on HeLa Kyoto [3] was -0.574. In addition, the figures for the melting temperature in the data set on HeLa Kyoto [4] (cell cycle stage: G1/S) and with HeLa Kyoto [4] (cell cycle stage: mitosis) were 60.7 °C and 60.5 °C, respectively.
